# Experimental data taken from US20240082342A1, “PEPTIDE THERAPEUTICS FOR INCREASING LUNG CELL VIABILITY” (BOARD OF REGENTS, THE UNIVERSITY OF TEXAS SYSTEM, priority 2018, published 2024).
# B1: IL-17A: recombinant interleukin 17A used to induce A2C injury in vitro and in mice (protein, UniProt Q62386 26-158, looked up)
# Interleukin-17A: AAIIPQSSACPNTEAKDFLQNVKVNLKVFNSLGAKVSSRRPSDYLNRSTSPWTLHRNEDPDRYPSVIWEAQCRHQRCVNAEGKLDHHMNSVLIQQEILVLKREPESCPFTFRVEKMLVGVGCTCVASIVRQAA
# Tests used:
# LECs = details: in vitro and in vivo; cited from earlier work
# [1] = system: A2ECs treated with IL-17A; assay: A2ECs exposed to IL-17A in vitro; format: cell-based, mouse
# Protocol: FIGS. 49A-49B show the role of IL-17A in PTS-induced p53, PAI-1 expression, and apoptosis in A2ECs. (A) IL-17A^−/− mice resist PTS-induced p53 expression and apoptosis in A2ECs. Mice were kept in ambient AIR or exposed to 20 weeks of PTS. A2ECs isolated from WT and IL-17A^−/− mice in AIR or exposed to PTS were analyzed for acetylated/total p53, Sirt1 and activated caspase-3 to assess apoptosis by Western blotting. (B) CSP inhibits IL-17A-induced p53 and PAI-1 expression and apoptosis in A2ECs in vitro. A2ECs isolated from WT mice were treated with PBS or IL-17A (100 ng/ml) in the presence or absence of CSP or control peptide, CP for 24 h in culture dishes. A2EC lysates were immunoblotted for p53, PAI-1, Cl./total caspase-3 and β-actin. WT mice exposed to IL-17A (FIG. 48D) and PTS (FIG. 46A) induce p53 acetylation and Cav1 expression, while inhibiting Sirt1 in A2ECs.
# FIGS. 58A-58B show a 7-amino acid fragment of CSP, CSP7 Inhibits IL-17A-induced A2EC apoptosis. (A) Fragments of CSP were synthesized as shown. (B) A2ECs were treated with CSP or its fragments, or CP, 2 h after exposure of cells to IL-17A. A2EC lysates were immunoblotted for acetylated/total p53 and active/total caspase-3 24 h after IL-17A exposure. β-actin levels were evaluated to assess equal loading.
# Increased p53 and apoptosis in A2ECs of mice exposed to PTS or IL-17A provided evidence that PTS acts by increasing IL-17A. To confirm that increased IL-17A contributes to the induction of p53 and PAI-1 expression, and apoptosis in A2ECs during PTS-induced lung injury, IL-17A-deficient mice were exposed to 20 weeks of PTS and control mice were kept in ambient air. A2ECs were tested for p53^AC, p53 and Sirt1 expression, and apoptosis. The responses were compared with changes in A2ECs isolated from WT mice exposed to 20 weeks of PTS or AIR. There was marked induction of p53^AC and p53 levels, and apoptosis with parallel suppression of Sirt1 expression in WT mice exposed to 20 weeks of PTS. […] To confirm mitigation of PTS induced lung injury by CSP or CSP7 involves suppression of IL-17A-induced p53, PAI-1 and apoptosis, A2ECs isolated from WT mice were next treated with IL-17A (100 ng/ml) with or without CSP, CSP7 or CP. Control cells were treated with vehicle (PBS) alone. The A2EC lysates were tested for p53 and p53-mediated downstream induction of PAI-1, and apoptosis. […] Further, induction of miR-34a increased p53 and apoptosis in A2ECs without exposure to tobacco smoke, while inhibition of miR-34a using miR-34a antisense (miR-34a-AS) reduced cigarette smoke induced p53 expression and apoptosis. Results of both in vitro and in vivo experiments support an intricate link between miR-34a, p53^AC, p53 and p53-mediated induction of PAI-1 expression, and A2EC apoptosis during PTS lung injury.
# [2] = system: ATII cells and BALF of IL-17A treated mice; assay: IL-17A-induced lung injury in mice; format: in vivo, mouse; details: WT mice exposed to recombinant IL-17A, 24 h
# Protocol: IL-17A is induced in passive tobacco smoke (PTS) exposed lung injury. […] Further, IL-17A induced ^p15Sp53 was inhibited following treatment of mice CSP7 when compared with those treated with saline and control peptide. To further test whether IL-17A induced ^p15Sp53 alters PAI-1 expression and ATII apoptosis, ATII cells of IL-17A treated mice for PAI-1 and apoptotic markers were analyzed. IL-17A induced the expression of PAI-1 and cl.Cas-3, and inhibited Sirt-1 expression in ATII cells. […] In addition, CSP7 treatment found to inhibit serine phosphorylation of p53 by neutralizing elevated IL-17A due to PTS exposure.
# To test the importance of miR-34a mediated deacetylation of p53 IL-17A or PTS induced lung injury, miR34a conditional knockout mice were treated with tamoxifen. miR34a conditional knockout mice treated with IL-17A (3 μg/mice) was administered with CSP7 and CP a day later. ATII cells isolated from these mice were screened for PAI-1, Sirt-1 and apoptotic markers. […] Further, CSP7 treatment had little effect in miR-34a^cKo mice since these mice resist IL-17A or PTS injury.
# BAL cells = assay: BAL cell counts in mice treated with IL-17A or Pre-miR-34a; format: in vivo, mouse
Molecule,BLM-induced apoptosis of LECs and subsequent pulmonary fibrosis (LECs),PAI-1 expression or apoptosis ([1]; A2ECs lacking p53 expression),"p53 and PAI-1 expression and apoptosis ([1]; mouse and human A2ECs, IL-17A alone)","total and acetylated p53, apoptosis and Cav1 expression in A2ECs [2]",percentage of PMN in total BAL cells (BAL cells),total BAL cells (BAL cells)
"NYHYLESSMTALYTLGH (listed as Homo sapiens) [PP-2, 17 residue peptide]",protected LECs from BLM-induced apoptosis in vitro and in vivo,,,,,
B1,,failed to induce PAI-1 expression or apoptosis,"induced expression of both p53 and PAI-1, and also apoptosis","marked increase in total and acetylated p53, apoptosis and induced Cav1 expression",11.27%,two-fold increase
